Here are results for 4 molecules from paper PMC3277882, “Structure and Kinetic Stability of the p63 Tetramerization Domain” (Journal of Molecular Biology, 2012).

The target in data set [1] is human p63 tetramerization domain, p63(359–402) (human). The data set is described as follows: crystal structure; p63(359–402), sitting drop at 17 °C, 10% polyethylene glycol 8000, 0.1 M Hepes (pH 7.5), 0.2 M Ca acetate; space group P422, one monomer in the asymmetric unit; 2.15 Å.
The target in data set [2] is human p63 tetramerization domain lacking the H2 helix, p63(359–388) (human). The experiment in a line: crystal structure; p63(359–388) SeMet, sitting drop at 17 °C, 30% polyethylene glycol 400, 0.1 M Hepes (pH 7.5), 0.2 M Mg chloride; space group P1, one tetramer in the asymmetric unit; 1.9 Å.
The target of data set [3] is human p63 full-length tetramerization domain variant, p63(356–411) (human). The data set is described as follows: native MS; nESI-MS of subunit exchange: equal amounts of 12C-14N and 13C-15N protein mixed, 10 μM each (monomer concentration), 500 mM ammonium acetate (pH 6.9), 37 °C; half-life of tetramer dissociation from kinetic modeling.
Data set [4] deals with the molecule itself. The data set is described as above.
Data set [5] deals with the molecule itself. The data set is described as above. This is another data set of the same source.

The molecule “human p63 tetramerization domain, p63(359–402) (domain or fragment)” showed a stoichiometry N in data set [1] of 4.
As to “human p63 tetramerization domain lacking the H2 helix, p63(359–388) (domain or fragment)”, the stoichiometry N in data set [2] stood at 4.
In data set [3], “human p63 full-length tetramerization domain variant, p63(356–411) (domain or fragment)” came in with a half-life of the tetramer, t1/2 of 7 min and a stoichiometry N of 4.

B1: human p73 full-length tetramerization domain variant, p73(351–399) (domain or fragment)
chain: GSDEDTYYLQVRGRENFEILMKLKESLELMELVPQPLVDSYRQQQQLLQRP
notes: Gly-Ser dipeptide left at the N terminus by the cloning strategy (after thrombin cleavage); human p73 tetramerization domain, residues 351-399; In the subunit exchange experiment an unlabeled (12C-14N) and a uniformly 13C-15N labeled sample of the same construct were mixed; also called p73 tetramerization domain; not shown: His6, N-terminal, cleaved; lipoyl domain, N-terminal, cleaved
Consider B1, for which, in data set [4], the “half-life of the tetramer, t1/2” value was 77 ± 5 min. Moreover, in data set [5], the “stoichiometry N” value was 4.
